Kd data for 60 molecules are collected here from US20090221680, “Aptamers that bind thrombin with high affinity” (published 2009).

Usually Kd stands for the constant that tells how readily two partners part at equilibrium. The low end stands for tighter binding, the high end for weaker binding.

In this data set the target is thrombin (alpha-thrombin) (Homo sapiens, UniProt P00734;P00734 P00734:315-363,P00734:364-622). Description: filter.
Consider GAUTAGGTTGGGTAGGGTGGTAUC (XNA, 2'-OMe 1-3,22-24, rest DNA) [ARC2849], for which the affinity, expressed as Kd, was 0.2 nM.
In turn, ACTGCCTAGGTTGGGTAGGGTGGTGGCAGT (XNA, 2'-OMe G14, rest DNA) [ARC2626] yielded a Kd of 1.59 nM.
For the molecule ACTGCCTAGGTTGGGTAGGGTGGTGGCAGT (XNA, 2'-OMe C27, rest DNA) [ARC2639], binding was characterised by a dissociation constant (Kd) of 0.08 nM.
For the molecule ACUGCCTAGGTTGGGTAGGGTGGTGGCAGU (XNA, 2'-OMe 1-5,27-30, rest DNA) [ARC2825], binding was characterised by a dissociation constant (Kd) of 1.03 nM.
ACTGCCTAGGTTGGGTAGGGTGGTGGCAGT (XNA, 2'-OMe G13, rest DNA) [ARC2625]: binding was characterised by a dissociation constant (Kd) of 0.568 nM.
The molecule ACTGCCTAGGTTGGGTAGGGTGGTGGCAGT (ssDNA, PS between G23 and T24) [ARC2666] had a Kd of 0.992 nM.
For the molecule UGCCUAGGTTGGGTAGGGTGGUGGCA (XNA, 2'-OMe 1-5,22,23,25,26, rest DNA) [ARC2837], binding was put at a Kd of 2.61 nM.
On to ACTGCCTAGGTTGGGTAGGGTGGTGGCAGT (XNA, 2'-OMe G4, rest DNA) [ARC2616], for which the Kd was 0.091 nM.
Molecule AAUGAUTAGGTTGGGTAGGGTGGTAUCAUU (XNA, 2'-OMe 1-6,25-30, rest DNA) [ARC2828] had a Kd of 0.33 nM.
In the case of GCCTAGGTTGGGTAGGGTGGTGGC (XNA, 2'-OMe 1-2,24, rest DNA) [ARC2846] it was 0.27 nM.
In the case of ACTGCCTAGGUTGGGTAGGGTGGTGGCAGT (XNA, 2'-OMe U11, rest DNA) [ARC2623] it was 0.746 nM; in that of ACTGCCTAGGTTGGGTAGGGTGGTGGCAGU (XNA, 2'-OMe U30, rest DNA) [ARC2642], 0.094 nM; in that of ACUGCCTAGGTTGGGTAGGGTGGTGGCAGT (XNA, 2'-OMe U3, rest DNA) [ARC2615], 0.094 nM.
ACUGCCUAGGTTGGGTAGGGTGGUGGCAGU (XNA, 2'-OMe 1-7,24,25,27-30, rest DNA) [ARC2823] yielded a Kd of 9.1 nM.
In turn, AUGATTAGGTTGGGTAGGGTGGTAUCAU (XNA, 2'-OMe 1-4,25-28, rest DNA) [ARC2836] yielded a Kd of 0.96 nM.
In the case of GCCTAGGTTGGGTAGGGTGGTGGC (XNA, 2'-OMe 1-3,22,24, rest DNA) [ARC2845] it was 0.86 nM; in that of UGATTAGGTTGGGTAGGGTGGTAUCA (XNA, 2'-OMe 1-3,24-26, rest DNA) [ARC2843], 0.62 nM.
CUGCCTAGGTTGGGTAGGGTGGTGGCAG (XNA, 2'-OMe 1-5,24,26-28, rest DNA) [ARC2831] gave a Kd of 5.12 nM.
Regarding AATGATTAGGTTGGGTAGGGTGGTATCATT (ssDNA) [ARC2826], the Kd was 0.77 nM.
Take ACTGCCTAGGTTGGGTAGGGTGGTGGCAGT (XNA, 2'-OMe C6, rest DNA) [ARC2618]: binding was put at a Kd of 0.121 nM.
In the case of UGCCTAGGTTGGGTAGGGTGGTGGCA (XNA, 2'-OMe 1-3,25,26, rest DNA) [ARC2839], the affinity, expressed as Kd, was 0.58 nM.
The molecule UGAUTAGGTTGGGTAGGGTGGTAUCA (XNA, 2'-OMe 1-4,23-26, rest DNA) [ARC2842] showed an equilibrium dissociation constant (Kd) of 1.06 nM.
Molecule ACTGCCTAGGTTGGGTAGGGTGGTGGCAGT (XNA, 2'-OMe A28, rest DNA) [ARC2640] had a Kd of 0.174 nM.
Molecule ACTGCCTAGGTTGGGTAGGGTGGTGGCAGT (ssDNA, PS between G10 and T11) [ARC2653] came in with a Kd of 0.066 nM.
For the molecule ATGATTAGGTTGGGTAGGGTGGTATCAT (ssDNA) [ARC2833], the Kd turned out to be 2.16 nM.
On to ACTGCCTAGGTTGGGTAGGGTGGTGGCAGT (XNA, 2'-OMe G23, rest DNA) [ARC2635], for which binding was put at a Kd of 0.248 nM.
As to ACTGCCTAGGTTGGGTAGGGTGGTGGCAGT (XNA, 2'-OMe A1, rest DNA) [ARC2613], the Kd worked out at 0.173 nM.
With AUGAUUAGGTTGGGTAGGGTGGUAUCAU (XNA, 2'-OMe 1-6,23-28, rest DNA) [ARC2834], binding was characterised by a dissociation constant (Kd) of 10.3 nM.
For the molecule ACTGCCTAGGTTGGGTAGGGTGGTGGCAGT (ssDNA, PS linkage between nt 2 and 3) [ARC2645], the Kd was 0.167 nM.
As to ACTGCCTAGGTTGGGTAGGGTGGTGGCAGT (ssDNA, PS between T16 and A17) [ARC2659], the Kd was 0.452 nM.
ACTGCCTAGGTTGGGTAGGGTGGTGGCAGT (XNA, 2'-OMe G18, rest DNA) [ARC2630] showed a Kd of 5.24 nM.
ACTGCCTAGGTTGGGTAGGGTGGTGGCAGT (XNA, 2'-OMe G25, rest DNA) [ARC2637] had a Kd of 0.118 nM.
As to ACTGCCTAGGTTGGGTAGGGTGGTGGCAGT (XNA, 2'-OMe G26, rest DNA) [ARC2638], the Kd stood at 0.192 nM.
On to ACTGCCTAGGTTGGGUAGGGTGGTGGCAGT (XNA, 2'-OMe U16, rest DNA) [ARC2628], for which binding was characterised by a dissociation constant (Kd) of 0.207 nM.
As for ACTGCCTAGGTTGGGTAGGGTGGTGGCAGT (XNA, 2'-OMe G29, rest DNA) [ARC2641], the Kd is 0.171 nM.
In the case of GATTAGGTTGGGTAGGGTGGTATC (ssDNA) [ARC2847] it was 0.21 nM; in that of ACTGCCTAGGTTGGGTAGGGTGGUGGCAGT (XNA, 2'-OMe U24, rest DNA) [ARC2636], 0.102 nM; in that of CTGCCTAGGTTGGGTAGGGTGGTGGCAG (ssDNA) [ARC2171], 0.221 nM.
In the case of ACTGCCTAGGTTGGGTAGGGTGGTGGCAGT (XNA, 2'-OMe A8, rest DNA) [ARC2620] it was 7.1 nM; in that of AUGAUTAGGTTGGGTAGGGTGGTAUCAU (XNA, 2'-OMe 1-5,24-28, rest DNA) [ARC2835], 1.27 nM; in that of GCCUAGGTTGGGTAGGGTGGUGGC (XNA, 2'-OMe 1-4,21,22,24, rest DNA) [ARC2844], 2.65 nM.
For TGATTAGGTTGGGTAGGGTGGTATCA (ssDNA) [ARC2840], the affinity, expressed as Kd, was 0.25 nM.
ACUGCCTAGGTTGGGTAGGGTGGTGGCAGU (XNA, 2'-OMe 1-6,25,27-30, rest DNA) [ARC2824] returned a Kd of 0.73 nM.
Consider ACTGCCUAGGTTGGGTAGGGTGGTGGCAGT (XNA, 2'-OMe U7, rest DNA) [ARC2619], for which the Kd is 0.215 nM.
In the case of CUGCCUAGGTTGGGTAGGGTGGUGGCAG (XNA, 2'-OMe 1-6,23,24,26-28, rest DNA) [ARC2830] it was 15.3 nM.
UGCCTAGGTTGGGTAGGGTGGTGGCA (XNA, 2'-OMe 1-4,23,25,26, rest DNA) [ARC2838] returned a Kd of 0.77 nM.
Regarding AAUGATTAGGTTGGGTAGGGTGGTAUCAUU (XNA, 2'-OMe 1-5,26-30, rest DNA) [ARC2829], the affinity, expressed as Kd, was 0.93 nM.
For GATTAGGTTGGGTAGGGTGGTAUC (XNA, 2'-OMe 1-2,23-24, rest DNA) [ARC2850], the Kd is 0.33 nM.
GCTGCCTAGGTTGGGTAGGGTGGTGGCAGC (ssDNA) [ARC2170] displayed a Kd of 0.19 nM.
In the case of UGAUUAGGTTGGGTAGGGTGGUAUCA (XNA, 2'-OMe 1-5,22-26, rest DNA) [ARC2841] it was 3.55 nM.
In the case of ACTGCCTAGGTTGGGTAGGGTGGTGGCAGT (XNA, 2'-OMe G22, rest DNA) [ARC2634], the Kd came to 0.549 nM.
In turn, CUGCCTAGGTTGGGTAGGGTGGTGGCAG (XNA, 2'-OMe 1-4,26-28, rest DNA) [ARC2832] gave a Kd of 1.88 nM.
In turn, ACTGCCTAGGTTGGGTAGGGTGGTGGCAGT (ssDNA, PS between T12 and G13) [ARC2655] gave a Kd of 0.079 nM.
ACTGCCTAGGTTGGGTAGGGTGGTGGCAGT (XNA, 2'-OMe G19, rest DNA) [ARC2631] returned a Kd of 4.96 nM.
Consider AAUGAUUAGGTTGGGTAGGGTGGUAUCAUU (XNA, 2'-OMe 1-7,24-30, rest DNA) [ARC2827], for which the Kd came out at 4.06 nM.
The molecule ACTGCCTAGGTTGGGTAGGGTGGTGGCAGT (XNA, 2'-OMe G9, rest DNA) [ARC2621] displayed a Kd of 1.52 nM.
The molecule GAUUAGGTTGGGTAGGGTGGUAUC (XNA, 2'-OMe 1-4,21-24, rest DNA) [ARC2848] came in with a Kd of 2.09 nM.
In the case of ACTGCCTAGGTTGGGTAGGGTGGTGGCAGT (XNA, 2'-OMe G10, rest DNA) [ARC2622] it was 0.038 nM; in that of ACTGCCTAGGTTGGGTAGGGTGGTGGCAGT (XNA, 2'-OMe C2, rest DNA) [ARC2614], 0.052 nM; in that of CCTCAGGGATGGTGTGGGTGGCTGAGG (ssDNA) [ARC1985], 5.7 nM.
